Assay results published in US20130007923A1.

What was measured:
[1] = biological target: BBMV proteins (brush border membrane vesicles) from fall armyworm (FAW; Spodoptera frugiperda) larval midgut (Spodoptera frugiperda); assay: heterologous competition: unlabeled Cry1Ca against 0.5 nM 125I Cry1Da (competitor pair Cry1Da/BBMV) on FAW BBMVs; reflects no displacement at Cry1Da sites, not lack of Cry1Ca binding to BBMVs
[2] = biological target: BBMV proteins (brush border membrane vesicles) from fall armyworm (FAW; Spodoptera frugiperda) larval midgut (Spodoptera frugiperda); assay: homologous competition: unlabeled Cry1Da against 0.5 nM 125I Cry1Da on FAW BBMVs

| Substance | IC50 [1] | IC50 [2] |
| --- | --- | --- |
| Cry1Ca (purified truncated Cry toxin) (from UniProt P0A376 28-618) | > 1000 nM | – |
| Cry1Da (purified truncated Cry toxin) (from UniProt P19415 28-594) | – | 1.5 nM |
